± gives the standard deviation of the averaged measurements.
Experiments:
Saccharomyces cerevisiae [1] = experiment: protein stability index of tFT-peptide fusion (C-terminal peptide) (PSI (0-1 scale)); higher = more stable (slower turnover)
Method: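 MPS profiling in S. cerevisiae of the tFT-X12 degron library: putative degron peptides plus stable controls, 12 aa, fused to the C-terminus of a sfGFP-mCherry timer. Cells are FACS-sorted into 8 mCherry/sfGFP bins and deep-sequenced. PSI runs from 0 (unstable) to 1 (stable). Backgrounds are wild type, das1Δ and doa10Δ at 30 °C, and wild type, das1Δ, cdc34-1 and cdc53-1 at 37 °C; 2-3 technical replicates each.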

Saccharomyces cerevisiae [2] = experiment: as above; conditions: genetic background: wild type; temperature: 30 C
[3] = genetic background: cdc34-1, temperature: 37 C
[4] = genetic background: cdc53-1, temperature: 37 C
[5] = genetic background: das1 deletion, temperature: 30 C
[6] = genetic background: das1 deletion, temperature: 37 C
[7] = genetic background: doa10 deletion, temperature: 30 C
[8] = genetic background: wild type, temperature: 30 C
[9] = genetic background: wild type, temperature: 37 C
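Further: PSI is a weighted mean of sequencing reads over stability bins, variants kept only with over 10 reads, mCherry proximal and sfGFP distal, peptide attached via GGGS linker.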

| Sequence | protein stability index (Saccharomyces cerevisiae [1]; [3]) | protein stability index (Saccharomyces cerevisiae [1]; [4]) | protein stability index (Saccharomyces cerevisiae [1]; [5]) | protein stability index (Saccharomyces cerevisiae [1]; [6]) | protein stability index (Saccharomyces cerevisiae [1]; [7]) | protein stability index (Saccharomyces cerevisiae [1]; [8]) | protein stability index (Saccharomyces cerevisiae [1]; [9]) | protein stability index (Saccharomyces cerevisiae [2]) |
| --- | --- | --- | --- | --- | --- | --- | --- | --- |
| SPSRAGQHLYYP | 0.684 ± 0.028 | 0.7347 ± 0.0032 | 0.64 ± 0.016 | 0.7334 ± 0.0037 | 0.636 ± 0.0095 | 0.662 ± 0.011 | 0.6953 ± 0.0059 | 0.718 ± 0.034 |
| SPTRTCTAIRTP | 0.689 ± 0.068 | 0.7392 ± 0.0058 | 0.666 ± 0.022 | 0.708 ± 0.0022 | 0.683 ± 0.057 | 0.676 ± 0.027 | 0.671 ± 0.0068 | 0.712 ± 0.034 |
| SRFFSSSFYRLC | 0.675 ± 0.036 | 0.7576 ± 0.0075 | 0.661 ± 0.012 | 0.777 ± 0.018 | 0.176 ± 0.0056 | 0.198 ± 0.036 | 0.485 ± 0.042 | 0.324 ± 0.046 |
| SRGGVFYVRIHS | 0.647 ± 0.043 | 0.709 ± 0.014 | 0.628 ± 0.016 | 0.697 ± 0.018 | 0.239 ± 0.0035 | 0.279 ± 0.029 | 0.4917 ± 0.0011 | 0.455 ± 0.051 |
| SRLLGVKVSLVC | 0.518 ± 0.025 | 0.567 ± 0.033 | 0.419 ± 0.031 | 0.581 ± 0.0085 | 0.35 ± 0.0097 | 0.384 ± 0.031 | 0.5364 ± 0.0038 | 0.472 ± 0.032 |
| SRVSEFVIPLGR | 0.7038 ± 0.0057 | 0.7389 ± 0.0046 | 0.622 ± 0.018 | 0.7555 ± 0.0021 | 0.644 ± 0.023 | 0.6473 ± 0.0059 | 0.71 ± 0.016 | 0.719 ± 0.033 |
| SSAFFFLLFSLA | 0.4227 ± 0.003 | 0.484 ± 0.006 | 0.342 ± 0.031 | 0.511 ± 0.009 | 0.244 ± 0.0068 | 0.266 ± 0.037 | 0.446 ± 0.0051 | 0.366 ± 0.013 |
| SSGIGLFVWVYG | 0.465 ± 0.0058 | 0.456 ± 0.015 | 0.282 ± 0.035 | 0.514 ± 0.013 | 0.226 ± 0.0051 | 0.268 ± 0.035 | 0.5023 ± 0.0012 | 0.421 ± 0.014 |
| SSLLLLCCLLVG | 0.365 ± 0.029 | 0.427 ± 0.015 | 0.277 ± 0.032 | 0.437 ± 0.01 | 0.248 ± 0.013 | 0.263 ± 0.03 | 0.403 ± 0.014 | 0.332 ± 0.01 |
| SSVCVLVSCVLG | 0.462 ± 0.019 | 0.5241 ± 0.0032 | 0.375 ± 0.037 | 0.5353 ± 0.0013 | 0.363 ± 0.013 | 0.382 ± 0.022 | 0.5117 ± 0.00052 | 0.4818 ± 0.0031 |
| SVGWGFWARFIG | 0.686 ± 0.057 | 0.756 ± 0.013 | 0.665 ± 0.014 | 0.772 ± 0.0086 | 0.215 ± 0.016 | 0.253 ± 0.017 | 0.434 ± 0.018 | 0.379 ± 0.069 |
| SVLALLWVGCWL | 0.355 ± 0.0064 | 0.4238 ± 0.0021 | 0.271 ± 0.045 | 0.478 ± 0.017 | 0.253 ± 0.0065 | 0.265 ± 0.029 | 0.452 ± 0.028 | 0.378 ± 0.055 |
| SVQICGFWLILG | 0.512 ± 0.031 | 0.604 ± 0.046 | 0.416 ± 0.026 | 0.5955 ± 0.0046 | 0.317 ± 0.0037 | 0.333 ± 0.011 | 0.53992 ± 0.00031 | 0.386 ± 0.06 |
| SVRGGSFLVHLC | 0.614 ± 0.096 | 0.758 ± 0.011 | 0.636 ± 0.018 | 0.7525 ± 0.0012 | 0.154 ± 0.017 | 0.168 ± 0.015 | 0.337 ± 0.015 | 0.337 ± 0.043 |
| SVVVLHVHVRPP | 0.618 ± 0.035 | 0.692 ± 0.018 | 0.5839 ± 0.0056 | 0.63 ± 0.011 | 0.593 ± 0.044 | 0.582 ± 0.024 | 0.6287 ± 0.0031 | 0.517 ± 0.12 |
| SWCLLVWIGGVF | 0.288 ± 0.038 | 0.376 ± 0.033 | 0.295 ± 0.027 | 0.451 ± 0.02 | 0.251 ± 0.01 | 0.264 ± 0.03 | 0.432 ± 0.017 | 0.388 ± 0.094 |
| SWGRGADRWRRA | 0.645 ± 0.042 | 0.7218 ± 0.0025 | 0.649 ± 0.017 | 0.7267 ± 0.0056 | 0.156 ± 0.019 | 0.195 ± 0.016 | 0.4725 ± 0.0013 | 0.319 ± 0.056 |
| SYWNSSPKCGNW | 0.712 ± 0.064 | 0.76 ± 0.022 | 0.667 ± 0.021 | 0.7705 ± 0.0011 | 0.664 ± 0.039 | 0.681 ± 0.018 | 0.746 ± 0.011 | 0.744 ± 0.0092 |
| TCRLIQLTVTLH | 0.3115 ± 0.0026 | 0.3774 ± 0.001 | 0.257 ± 0.038 | 0.458 ± 0.0051 | 0.232 ± 0.0034 | 0.253 ± 0.018 | 0.4071 ± 0.0036 | 0.386 ± 0.053 |
| TCVVCSCVLQCV | 0.47 ± 0.041 | 0.491 ± 0.02 | 0.307 ± 0.023 | 0.49 ± 0.0051 | 0.305 ± 0.027 | 0.324 ± 0.028 | 0.4641 ± 0.0042 | 0.362 ± 0.04 |

| Sequence | protein stability index (Saccharomyces cerevisiae [1]; [3]) | protein stability index (Saccharomyces cerevisiae [1]; [4]) | protein stability index (Saccharomyces cerevisiae [1]; [5]) | protein stability index (Saccharomyces cerevisiae [1]; [6]) | protein stability index (Saccharomyces cerevisiae [1]; [7]) | protein stability index (Saccharomyces cerevisiae [1]; [8]) | protein stability index (Saccharomyces cerevisiae [1]; [9]) | protein stability index (Saccharomyces cerevisiae [2]) |
| --- | --- | --- | --- | --- | --- | --- | --- | --- |
| TLCHLTLICVRE | 0.221 ± 0.0099 | 0.253 ± 0.018 | 0.226 ± 0.019 | 0.358 ± 0.011 | 0.1767 ± 0.00029 | 0.21 ± 0.018 | 0.336 ± 0.012 | 0.382 ± 0.027 |
| TLVFPRFLFLVV | 0.348 ± 0.02 | 0.365 ± 0.019 | 0.393 ± 0.031 | 0.493 ± 0.023 | 0.518 ± 0.011 | 0.363 ± 0.028 | 0.432 ± 0.0083 | 0.452 ± 0.066 |
| TNHRVRHWILRV | 0.665 ± 0.013 | 0.721 ± 0.0099 | 0.609 ± 0.024 | 0.713 ± 0.02 | 0.253 ± 0.022 | 0.301 ± 0.019 | 0.517 ± 0.0083 | 0.396 ± 0.031 |
| TPLLPPSPPPSR | 0.647 ± 0.02 | – | 0.27 ± 0.02 | 0.46 ± 0.0089 | 0.244 ± 0.0028 | 0.277 ± 0.017 | 0.4348 ± 0.0042 | 0.3328 ± 0.0026 |
| TRPHPLRRVFIF | 0.669 ± 0.034 | 0.725 ± 0.013 | 0.643 ± 0.0072 | 0.735 ± 0.013 | 0.226 ± 0.013 | 0.23 ± 0.038 | 0.433 ± 0.041 | 0.293 ± 0.026 |
| TRSLLFANRCIV | 0.66 ± 0.047 | 0.706 ± 0.033 | 0.619 ± 0.017 | 0.737 ± 0.0079 | 0.269 ± 0.0075 | 0.304 ± 0.025 | 0.503 ± 0.009 | 0.396 ± 0.014 |
| TVCSWSALSRFM | 0.691 ± 0.042 | 0.7558 ± 0.0062 | 0.6449 ± 0.0016 | 0.76419 ± 0.00033 | 0.631 ± 0.032 | 0.627 ± 0.015 | 0.705 ± 0.0097 | 0.587 ± 0.15 |
| TVILVLFPSPFL | 0.589 ± 0.036 | 0.679 ± 0.012 | 0.472 ± 0.037 | 0.671 ± 0.023 | 0.448 ± 0.014 | 0.484 ± 0.01 | 0.597 ± 0.017 | 0.51 ± 0.021 |
| VAFFSVFYWLEC | 0.287 ± 0.069 | 0.424 ± 0.066 | 0.299 ± 0.021 | 0.47 ± 0.033 | 0.261 ± 0.0032 | 0.29 ± 0.034 | 0.454 ± 0.018 | 0.365 ± 0.023 |
| VARRRQQWMRGS | 0.517 ± 0.066 | 0.56 ± 0.034 | 0.5261 ± 0.003 | 0.54643 ± 0.00042 | 0.529 ± 0.0063 | 0.516 ± 0.025 | 0.5449 ± 0.004 | 0.517 ± 0.041 |
| VCAFCLFFVPLP | 0.5888 ± 0.00072 | 0.668 ± 0.023 | 0.425 ± 0.038 | 0.6497 ± 0.0021 | 0.3831 ± 0.0035 | 0.413 ± 0.022 | 0.593 ± 0.012 | 0.47 ± 0.013 |
| VCFWCLYVMFSL | 0.46 ± 0.043 | 0.494 ± 0.01 | 0.383 ± 0.019 | 0.463 ± 0.0068 | 0.372 ± 0.0057 | 0.363 ± 0.021 | 0.471 ± 0.022 | 0.418 ± 0.018 |
| VCIPLLVIRFLV | 0.098 ± 0.013 | 0.182 ± 0.014 | 0.234 ± 0.022 | 0.386 ± 0.029 | 0.0616 ± 0.019 | 0.0599 ± 0.014 | 0.0485 ± 0.00051 | 0.109 ± 0.0095 |
| VCLFSVCLWFVS | 0.0838 ± 0.025 | 0.219 ± 0.062 | 0.16 ± 0.026 | 0.313 ± 0.011 | 0.124 ± 0.0088 | 0.141 ± 0.015 | 0.227 ± 0.013 | 0.21 ± 0.044 |
| VCLLVSVCLLWL | 0.172 ± 0.0043 | 0.244 ± 0.047 | 0.21 ± 0.013 | 0.329 ± 0.021 | 0.18 ± 0.023 | 0.192 ± 0.025 | 0.309 ± 0.016 | 0.252 ± 0.015 |
| VCLVFLFQFVLI | 0.482 ± 0.094 | 0.507 ± 0.029 | 0.406 ± 0.023 | 0.517 ± 0.0061 | 0.442 ± 0.028 | 0.41 ± 0.0094 | 0.491 ± 0.01 | 0.481 ± 0.011 |
| VCMVLCRWRGLG | 0.601 ± 0.028 | 0.704 ± 0.0075 | 0.6061 ± 0.0028 | 0.6993 ± 0.0046 | 0.219 ± 0.011 | 0.234 ± 0.038 | 0.443 ± 0.026 | 0.331 ± 0.01 |
| VCRCFPVCLFSF | 0.6178 ± 0.0049 | 0.692 ± 0.014 | 0.523 ± 0.023 | 0.706 ± 0.027 | 0.294 ± 0.0057 | 0.341 ± 0.029 | 0.519 ± 0.02 | 0.413 ± 0.031 |
| VCVRLVHCLVLV | 0.2359 ± 0.0019 | 0.2514 ± 0.0021 | 0.208 ± 0.02 | 0.332 ± 0.0068 | 0.177 ± 0.01 | 0.174 ± 0.017 | 0.283 ± 0.014 | 0.265 ± 0.031 |
